Publication PMC10786891, “Massively parallel profiling of RNA-targeting CRISPR-Cas13d”
Changes are numbered by the printed parent chain. Numbers in names are those of the source.

Molecular target: T1, EsCas13d, nuclease-dead (Eubacterium siraeum, UniProt B0MS50, R295A;H300A;R849A;H854A)
T1 sequence: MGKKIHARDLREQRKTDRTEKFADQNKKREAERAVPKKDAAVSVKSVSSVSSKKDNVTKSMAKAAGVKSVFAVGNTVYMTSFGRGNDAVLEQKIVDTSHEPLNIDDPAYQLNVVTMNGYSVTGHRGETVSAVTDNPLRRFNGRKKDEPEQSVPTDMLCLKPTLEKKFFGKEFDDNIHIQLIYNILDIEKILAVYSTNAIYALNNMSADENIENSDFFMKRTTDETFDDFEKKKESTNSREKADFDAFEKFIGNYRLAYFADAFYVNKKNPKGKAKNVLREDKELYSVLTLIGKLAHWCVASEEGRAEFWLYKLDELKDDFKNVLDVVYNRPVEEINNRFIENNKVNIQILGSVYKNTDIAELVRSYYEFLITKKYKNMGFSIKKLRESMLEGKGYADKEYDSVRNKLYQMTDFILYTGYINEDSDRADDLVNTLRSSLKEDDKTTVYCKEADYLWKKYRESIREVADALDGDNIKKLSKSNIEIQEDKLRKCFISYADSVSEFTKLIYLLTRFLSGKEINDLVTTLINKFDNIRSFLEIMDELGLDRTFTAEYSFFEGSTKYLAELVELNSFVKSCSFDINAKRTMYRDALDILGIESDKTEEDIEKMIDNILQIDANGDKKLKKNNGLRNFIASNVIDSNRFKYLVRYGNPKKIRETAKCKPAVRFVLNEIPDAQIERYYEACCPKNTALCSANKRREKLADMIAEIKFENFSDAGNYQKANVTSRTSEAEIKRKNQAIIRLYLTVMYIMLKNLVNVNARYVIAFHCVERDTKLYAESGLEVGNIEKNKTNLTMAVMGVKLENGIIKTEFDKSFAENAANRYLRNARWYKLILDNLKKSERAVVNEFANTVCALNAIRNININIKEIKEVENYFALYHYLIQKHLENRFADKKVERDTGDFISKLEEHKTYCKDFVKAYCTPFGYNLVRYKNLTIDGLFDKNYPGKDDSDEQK
Assay: crRNA (strand 1, pre-loaded); Mg2+; 40 mM Tris-HCl pH 7.5, 150 mM NaCl, 6 mM MgCl2, 1 mM DTT, 0.1% Tween-20, 0.2 mg/ml BSA; 25 C; 10 min per concentration, then washed
Details: tags: His6-TwinStrep-SUMO cleaved; N-terminal SNAP kept (SNAP-Surface 488); label: 3' end held by stalled T7 RNA polymerase

B1: target 1 MT 5'PFS UAA 3'PFS UGC (mixed)
RNA 1: CACCCGUGCAAAAAUGCAGGGGUCUAAAACUGAGCGGAUAACCUCUCUAUGG
RNA 2: GGGAAUGGAUCCACAUCUACGAAUUCUAACCAUAGAGAGGUUAUCCGCUCAUGCAGAUCGGAAGAGCACACGU
Binder B1 has a Kd of 0.031 ± 0.008 µM.

B2: target 1 MT 5'PFS AGG 3'PFS AGC (mixed)
RNA 1: B1 RNA 1
RNA 2: B1 RNA 2 with U27A, A28G, A29G, U52A
Work on B2 yielded a Kd of roughly 0.052 µM.

B3: target 1 MT 5'PFS AAG 3'PFS CGG (mixed)
RNA 1: B1 RNA 1
RNA 2: B1 RNA 2 with U27A, A29G, U52C, C54G
B3 gave a Kd of 0.041 ± 0.0125 µM.

B4: target 1 MT 5'PFS UGC 3'PFS CUA (mixed)
RNA 1: B1 RNA 1
RNA 2: B1 RNA 2 with A28G, A29C, U52C, G53U, C54A
For B4, the Kd was 0.018 ± 0.007 µM.

B5: target 1 MT 5'PFS ACA 3'PFS UUC (mixed)
RNA 1: B1 RNA 1
RNA 2: B1 RNA 2 with U27A, A28C, G53U
In the case of B5, the Kd is reported as 0.0127 ± 0.0042 µM.

B6: target 1 insC 3' of 20,insG 3' of 18 (mixed)
RNA 1: B1 RNA 1
RNA 2: GGGAAUGGAUCCACAUCUACGAAUUCGUACCACUAGGAGAGGUUAUCCGCUCACCGAGAUCGGAAGAGCACACGU
B6 gave a Kd of 0.0129 ± 0.0008 µM.

B7: target 1 MT 5'PFS AGU 3'PFS AAC (mixed)
RNA 1: B1 RNA 1
RNA 2: B1 RNA 2 with U27A, A28G, A29U, U52A, G53A
For B7, the Kd was 0.049 ± 0.016 µM.

B8: target 1 MT 5'PFS CUU 3'PFS CUG (mixed)
RNA 1: B1 RNA 1
RNA 2: B1 RNA 2 with U27C, A28U, A29U, U52C, G53U, C54G
For B8, the Kd was 0.041 ± 0.019 µM.

B9: target 1 MT 5'PFS AGG 3'PFS AGG (mixed)
RNA 1: B1 RNA 1
RNA 2: B1 RNA 2 with U27A, A28G, A29G, U52A, C54G
B9 showed a Kd of roughly 0.11 µM.

B10: target 1 MT 5'PFS AGA 3'PFS AUC (mixed)
RNA 1: B1 RNA 1
RNA 2: B1 RNA 2 with U27A, A28G, U52A, G53U
For B10, the Kd was 0.049 ± 0.017 µM.

B11: target 1 insU 3' of 22,insC 3' of 22 (mixed)
RNA 1: B1 RNA 1
RNA 2: B6 RNA 2 with C31U, A32C, U34A, A35U, G36A
In the case of B11, the Kd is reported as 0.0316 ± 0.0012 µM.

B12: target 1 MT 5'PFS CUU 3'PFS CUA (mixed)
RNA 1: B1 RNA 1
RNA 2: B1 RNA 2 with U27C, A28U, A29U, U52C, G53U, C54A
Binder B12 has a Kd of 0.0295 ± 0.0125 µM.

B13: target 1 MT 5'PFS UCA 3'PFS AAC (mixed)
RNA 1: B1 RNA 1
RNA 2: B1 RNA 2 with A28C, U52A, G53A
In the case of B13, the Kd is reported as 0.0186 ± 0.0057 µM.

B14: target 1 MT 5'PFS GUA 3'PFS UGC (mixed)
RNA 1: B1 RNA 1
RNA 2: B1 RNA 2 with U27G, A28U
With B14 the Kd was 0.00568 ± 0.00046 µM.

B15: target 1 A9U,U11A (mixed)
RNA 1: B1 RNA 1
RNA 2: B1 RNA 2 with U27G, A28U, U41A, A43U, U52C, G53C, C54G
In the case of B15, the Kd is reported as 0.0234 ± 0.0011 µM.

B16: target 1 MT 5'PFS UCA 3'PFS AAU (mixed)
RNA 1: B1 RNA 1
RNA 2: B1 RNA 2 with A28C, U52A, G53A, C54U
In the case of B16, the Kd is reported as 0.0192 ± 0.00635 µM.

B17: target 1 MT 5'PFS CUA 3'PFS UCU (mixed)
RNA 1: B1 RNA 1
RNA 2: B1 RNA 2 with U27C, A28U, G53C, C54U
Work on B17 yielded a Kd of 0.0049 ± 0.0007 µM.

B18: target 1 MT 5'PFS UGU 3'PFS AUA (mixed)
RNA 1: B1 RNA 1
RNA 2: B1 RNA 2 with A28G, A29U, U52A, G53U, C54A
B18 was tested, and the Kd was 0.0625 ± 0.023 µM.

B19: target 1 MT 5'PFS AGG 3'PFS AGA (mixed)
RNA 1: B1 RNA 1
RNA 2: B1 RNA 2 with U27A, A28G, A29G, U52A, C54A
In the case of B19, the Kd is reported as 0.0375 ± 0.0085 µM.

B20: target 1 MT 5'PFS GUA 3'PFS UGA (mixed)
RNA 1: B1 RNA 1
RNA 2: B1 RNA 2 with U27G, A28U, C54A
With B20 the Kd was 0.0112 ± 0.00065 µM.

B21: target 1 MT 5'PFS ACA 3'PFS UUA (mixed)
RNA 1: B1 RNA 1
RNA 2: B1 RNA 2 with U27A, A28C, G53U, C54A
B21 showed a Kd of 0.00885 ± 0.0029 µM.

B22: target 1 MT 5'PFS AGU 3'PFS AAA (mixed)
RNA 1: B1 RNA 1
RNA 2: B1 RNA 2 with U27A, A28G, A29U, U52A, G53A, C54A
For B22, the Kd was roughly 0.1 µM.

B23: target 1 MT 5'PFS UGC 3'PFS CUG (mixed)
RNA 1: B1 RNA 1
RNA 2: B1 RNA 2 with A28G, A29C, U52C, G53U, C54G
For B23, the Kd was 0.0132 ± 0.0028 µM.

B24: target 1 MT 5'PFS GGU 3'PFS CUA (mixed)
RNA 1: B1 RNA 1
RNA 2: B1 RNA 2 with U27G, A28G, A29U, U52C, G53U, C54A
B24 was tested, and the Kd was 0.0645 ± 0.0275 µM.

B25: target 1 MT 5'PFS AAG 3'PFS CGA (mixed)
RNA 1: B1 RNA 1
RNA 2: B1 RNA 2 with U27A, A29G, U52C, C54A
Binder B25 has a Kd of 0.038 ± 0.016 µM.

B26: target 1 MT 5'PFS AGU 3'PFS AAG (mixed)
RNA 1: B1 RNA 1
RNA 2: B1 RNA 2 with U27A, A28G, A29U, U52A, G53A, C54G
B26 showed a Kd of 0.055 ± 0.024 µM.

B27: target 1 MT 5'PFS AAC 3'PFS UAU (mixed)
RNA 1: B1 RNA 1
RNA 2: B1 RNA 2 with U27A, A29C, G53A, C54U
Binder B27 has a Kd of 0.015 ± 0.0055 µM.

B28: target 1 MT 5'PFS AUG 3'PFS CUC (mixed)
RNA 1: B1 RNA 1
RNA 2: B1 RNA 2 with U27A, A28U, A29G, U52C, G53U
B28 showed a Kd of 0.0211 ± 0.00575 µM.

B29: target 1 MT 5'PFS AGA 3'PFS AUA (mixed)
RNA 1: B1 RNA 1
RNA 2: B1 RNA 2 with U27A, A28G, U52A, G53U, C54A
Binder B29 has a Kd of 0.045 ± 0.015 µM.

B30: target 1 U10A,U11G (mixed)
RNA 1: B1 RNA 1
RNA 2: B1 RNA 2 with U27G, A28U, U41G, U42A, U52C, G53C, C54G
With B30 the Kd was 0.0116 ± 0.0005 µM.

B31: target 1 MT 5'PFS CUU 3'PFS CUC (mixed)
RNA 1: B1 RNA 1
RNA 2: B1 RNA 2 with U27C, A28U, A29U, U52C, G53U
B31 gave a Kd of roughly 0.015 µM.

B32: target 1 MT 5'PFS UCA 3'PFS AAA (mixed)
RNA 1: B1 RNA 1
RNA 2: B1 RNA 2 with A28C, U52A, G53A, C54A
B32 showed a Kd of 0.021 ± 0.009 µM.

B33: target 1 MT 5'PFS UCA 3'PFS AAG (mixed)
RNA 1: B1 RNA 1
RNA 2: B1 RNA 2 with A28C, U52A, G53A, C54G
With B33 the Kd was roughly 0.07 µM.

B34: target 1 MT 5'PFS GUA 3'PFS UGG (mixed)
RNA 1: B1 RNA 1
RNA 2: B1 RNA 2 with U27G, A28U, C54G
In the case of B34, the Kd is reported as 0.0585 ± 0.0075 µM.
